Assay [1] addresses mesothelin on OVCAR-3 cells (UniProt Q13421). Nature of the assay: FACS titration, EC50 on OVCAR-3 against EC50 on NCI-H226.
Assay [2] shares this target. Nature of the assay: FACS titration, IgG on OVCAR-3 cells.

B1: MOR06631 IgG (antibody, V domains shown)
VH: QVQLVQSGAEVKKPGESLKISCKGSGYSFTNYWIGWVRQMPGKGLEWMGFIWPVDSWTQYSPSFQGQVTISADKSISTAYLQWSSLKASDTAMYYCARYGHGMYGGALDVWGQGTLVTVSS
VL: DIVLTQSPATLSLSPGERATLSCRASQSVRSSRLAWYQQKPGQAPRLLIYGASKRATGVPARFSGSGSGTDFTLTISSLEPEDFATYYCQQYYDFPPTFGQGTKVEIKR
Regarding B1, in assay [1], the x-fold different EC50 on OVCAR-3 vs. NCI-H226 worked out at 0.5 fold.

B2: MOR06669 IgG (antibody, V domains shown)
VH: QVQLVQSGAEVKKPGESLKISCKGSGYSFTNYWIGWVRQMPGKGLEWMGIIWPIDSFTQYSPSFQGQVTISADKSISTAYLQWSSLKASDTAMYYCARYGHGMYGGALDVWGQGTLVTVSS
VL: DIVLTQSPATLSLSPGERATLSCRASQSVRSSRLAWYQQKPGQAPRLLIYGASKRATGVPARFSGSGSGTDFTLTISSLEPEDFATYYCQQYYDFPPTFGQGTKVEIKR
With B2, in assay [1], the x-fold different EC50 on OVCAR-3 vs. NCI-H226 was determined as 3.4 fold.

B3: MOR07111 IgG (antibody, V domains shown)
VH: QVQLVQSGAEVKKPGESLKISCKGSGYSFTNYWIGWVRQMPGKGLEWMGVIMPSDSYTRYSPSFQGQVTISADKSISTAYLQWSSLKASDTAMYYCARYGHGMYGGALDVWGQGTLVTVSS
VL: DIVLTQSPATLSLSPGERATLSCRASQSVRSSRLAWYQQKPGQAPRLLIYGASKRATGVPARFSGSGSGTDFTLTISSLEPEDFAVYYCQQFYSKPITFGQGTKVEIKR
For B3, in assay [1], the x-fold different EC50 on OVCAR-3 vs. NCI-H226 stood at 1.7 fold.

B4: MOR06657 IgG (antibody, V domains shown)
VH: QVQLVQSGAEVKKPGSSVKVSCKASGGTFSSYYFSWVRQAPGQGLEWMGGIIPKFGSANYAQKFQGRVTITADESTSTAYMELSSLRSEDTAVYYCARRTSMDYWGQGTLVTVSS
VL: DIALTQPASVSGSPGQSITISCTGTSSDVGGYNYVSWYQQHPGKAPKLMIYSVSKRPSGVSNRFSGSKSGNTASLTISGLQAEDEADYYCATWDHSQMGKVFGGGTKLTVLG
The term EC50 denotes the concentration needed to bring the measured effect to its halfway point. Read a high EC50 as a need for much substance. As for B4, the x-fold different EC50 on OVCAR-3 vs. NCI-H226 in assay [1] came to 14 fold. In addition, the EC50 in assay [2] worked out at 0.53 nM.

B5: MOR06626 IgG (antibody, V domains shown)
VH: QVQLVQSGAEVKKPGASVKVSCKASGYTFTGNYINWVRQAPGQGLEWMGIINPTKGWTLYAQKFQGRVTMTRDTSISTAYMELSSLRSEDTAVYYCARWHHGTWIFDYWGQGTLVTVSS
VL: DIVLTQPPSVSGAPGQRVTISCSGSSSNIGSNYVSWYQQLPGTAPKLLIYNDNQRPSGVPDRFSGSKSGTSASLAITGLQSEDEADYYCSTYDRRTFSVFGGGTKLTVLG
As to B5, in assay [1], the x-fold different EC50 on OVCAR-3 vs. NCI-H226 came out at 22 fold. In assay [2], this molecule displayed an EC50 of 9.68 nM.

B6: MOR06638 IgG (antibody, V domains shown)
VH: QVQLVQSGAEVKKPGASVKVSCKASGYTFTGNYINWVRQAPGQGLEWMGIINPHGGDTKYAQKFQGRVTMTRDTSISTAYMELSSLRSEDTAVYYCARWHHGTWIFDYWGQGTLVTVSS
VL: DIVLTQPPSVSGAPGQRVTISCSGSSSNIGSNYVSWYQQLPGTAPKLLIYNDNQRPSGVPDRFSGSKSGTSASLAITGLQSEDEADYYCSSWDRADGSYVFGGGTKLTVLG
In the case of B6, in assay [1], the x-fold different EC50 on OVCAR-3 vs. NCI-H226 was determined as 22.1 fold.
